Results taken from article PMC2933939 (Bioorganic & medicinal chemistry, 2010).

Target: Heat shock protein 90 (Hsp90), purified, native (UniProt P07900 1-732)
Assay: pull-down

B1: Sansalvamide A-amide (San A-amide), compound 1, macrocycle Phe-Leu-Val-Leu-Leu (peptide)
peptide: FLVLL
modifications: head-to-tail cyclised macrocycle (cyclic pentapeptide)
For B1, the IC50 was 19.7 µM.
